Reference: patent publication US20130123350, “NUCLEIC ACID MOLECULE CAPABLE OF BINDING TO c-MET AND USE THEREOF” (KANAGAWA PREFECTURAL HOSPITAL ORGANIZATION, published 2013)

B1: g6 2'-F (ssRNA)
RNA: GGGACGCUCACGUACGCUAAUCCAGGUGUGGCGAGCCACUGUAAGAGUCGCCGUGAGGAUUCAGUGCCUGGACGUGCAGU
modifications: 2'-F on all C and U
B2: g14 2'-F (ssRNA)
RNA: GGGACGCUCACGUACGCUAAUCAUCGGGACAUCGGAUGGAACGGGUGUCAAGAAGCGUGUUCAGUGCCUGGACGUGCAGU
modifications: 2'-F on all C and U
B3: g10 2'-F (ssRNA)
RNA: GGGACGCUCACGUACGCUAAACACAGCUCUGAUGGUCGUGAUUAGGUUGACCACCUACCUUCAGUGCCUGGACGUGCAGU
modifications: 2'-F on all C and U
B4: g32 2'-F (ssRNA)
RNA: GGGACGCUCACGUACGCUAAACAAGACCGGGAUGGGGGUUGGUCACACACAAAGACUGAAUCAGUGCCUGGACGUGCAGU
modifications: 2'-F on all C and U
B5: g18 2'-F (ssRNA)
RNA: GGGACGCUCACGUACGCUAAGGCACCCUAUAGGAUUCAGCCCCUAACCCGGUGUUGUGAAUCAGUGCCUGGACGUGCAGU
modifications: 2'-F on all C and U
B6: g23 2'-F (ssRNA)
RNA: GGGACGCUCACGUACGCUAAAUGGGAGUGCGCCUCGGCUCUAACGGAGGUAUGCACGUCAUCAGUGCCUGGACGUGCAGU
modifications: 2'-F on all C and U
B7: g7 2'-F (ssRNA)
RNA: GGGACGCUCACGUACGCUAACUUGAAGUCAAGGGUAGAGUGACCAUGCAGCUCGUAGACAUCAGUGCCUGGACGUGCAGU
modifications: 2'-F on all C and U
B8: g3 2'-F (ssRNA)
RNA: GGGACGCUCACGUACGCUAAGGGCGAAACUGUCGUGACACGGUUUGACAUGCCGGCCUUAUCAGUGCCUGGACGUGCAGU
modifications: 2'-F on all C and U
B9: g4 2'-F (ssRNA)
RNA: GGGACGCUCACGUACGCUAAUACCGUGAUUCGGGGUGGUAUCCGGUGGACAUCCAGGUCGUCAGUGCCUGGACGUGCAGU
modifications: 2'-F on all C and U
B10: g11 2'-F (ssRNA)
RNA: GGGACGCUCACGUACGCUAAGUUUAGGUGGCAUCGACCUUCAUGAAACGGGUGCACAGGCUCAGUGCCUGGACGUGCAGU
modifications: 2'-F on all C and U
B11: g16 2'-F (ssRNA)
RNA: GGGACGCUCACGUACGCUAACCGCUACCGGGUGCAACGGGUAGACUGUAACCAGGUGAUAUCAGUGCCUGGACGUGCAGU
modifications: 2'-F on all C and U
B12: g17 2'-F (ssRNA)
RNA: GGGACGCUCACGUACGCUAAAGUGAUGGCCGGCUGGAGAAACGGGCCACUCGAUCCAGGUCAGUGCCUGGACGUGCAGU
modifications: 2'-F on all C and U
B13: g27 2'-F (ssRNA)
RNA: GGGACGCUCACGUACGCUAACCUAUGCAGACCGACAUCCGGGUAUACGGGAUGAUGCGACUCAGUGCCUGGACGUGCAGU
modifications: 2'-F on all C and U
B14: g24 2'-F (ssRNA)
RNA: GGGACGCUCACGUACGCUAAGAGUUGUCGCACAGCGACUCGAAAAUAAUCUGUCCGACACUCAGUGCCUGGACGUGCAGU
modifications: 2'-F on all C and U
B15: g8 2'-F (ssRNA)
RNA: GGGACGCUCACGUACGCUAAGGGCACUUAAAACCAGACCGUGAUUUGCGGUUGGUCUCGCUCAGUGCCUGGACGUGCAGU
modifications: 2'-F on all C and U
B16: g21 2'-F (ssRNA)
RNA: GGGACGCUCACGUACGCUAACCUUGGUGUCAUCCGACCAAAUUAGAACGGGAUGAGGAAGUCAGUGCCUGGACGUGCAGU
modifications: 2'-F on all C and U
B17: g28 2'-F (ssRNA)
RNA: GGGACGCUCACGUACGCUAACCUGGGGGUUCCGCAGGAAUCGGGAACUAGAUUGGUGGUCUCAGUGCCUGGACGUGCAGU
modifications: 2'-F on all C and U
B18: g22 2'-F (ssRNA)
RNA: GGGACGCUCACGUACGCUAAGCGUGUUUCUUCAUUUCGACGCUGGCCAACGGAAAUGCAAUCAGUGCCUGGACGUGCAGU
modifications: 2'-F on all C and U
B19: g9 2'-F (ssRNA)
RNA: GGGACGCUCACGUACGCUAAGAUGUCUCAAUUGGUCGUGAUUGUGCUGACCACACGAACCUCAGUGCCUGGACGUGCAGU
modifications: 2'-F on all C and U
B20: g13 2'-F (ssRNA)
RNA: GGGACGCUCACGUACGCUAAUCACUCGGACAGCCGGAGCGAAACGGGCUGUGUAAGACUGUCAGUGCCUGGACGUGCAGU
modifications: 2'-F on all C and U
B21: g5 2'-F (ssRNA)
RNA: GGGACGCUCACGUACGCUAAGCCCAACGAACAUUUUGAGUUUCCAGGCAGCUCAUAGACAUCAGUGCCUGGACGUGCAGU
modifications: 2'-F on all C and U
B22: g15 2'-F (ssRNA)
RNA: GGGACGCUCACGUACGCUAAGACGCGGGCCACCGGCUAGCGACGGGUGGUAAAGGGCUUGUCAGUGCCUGGACGUGCAGU
modifications: 2'-F on all C and U
B23: g26 2'-F (ssRNA)
RNA: GGGACGCUCACGUACGCUAAGCUCCACCAGGUGUAGCUAGCCUGUAGACAUCAGUAGCAUCAGUGCCUGGACGUGCAGU
modifications: 2'-F on all C and U
B24: g19 2'-F (ssRNA)
RNA: GGGACGCUCACGUACGCUAAGUAGCCGUGAUUGGGUUGGCUGCCCACAAUUAUCCAGGACUCAGUGCCUGGACGUGCAGU
modifications: 2'-F on all C and U
B25: g12 2'-F (ssRNA)
RNA: GGGACGCUCACGUACGCUAACGCGGCCAUCCGGCGUUUGGAACGGGAUGUACACCUGACAUCAGUGCCUGGACGUGCAGU
modifications: 2'-F on all C and U
B26: g20 2'-F (ssRNA)
RNA: GGGACGCUCACGUACGCUAAACGUUGUGGCGAACUUCGGCCCGAACGGGAGUAACUGCAUCAGUGCCUGGACGUGCAGU
modifications: 2'-F on all C and U
B27: g2 2'-F (ssRNA)
RNA: GGGACGCUCACGUACGCUAAACCCUGGCGAUCUCCGGCCGGAUACGGGAGAACGAGGUACUCAGUGCCUGGACGUGCAGU
modifications: 2'-F on all C and U
B28: g30 2'-F (ssRNA)
RNA: GGGACGCUCACGUACGCUAAAAAUUGCCGGGAUCUGGUGUGGCGACCAUGCGGCGUGCAUUCAGUGCCUGGACGUGCAGU
modifications: 2'-F on all C and U
B29: g31 2'-F (ssRNA)
RNA: GGGACGCUCACGUACGCUAAAGAGUCUAUGCCGUGAGUGAGGGUGGCGCCUCGACUGCCAUCAGUGCCUGGACGUGCAGU
modifications: 2'-F on all C and U
B30: g1 2'-F (ssRNA)
RNA: GGGACGCUCACGUACGCUAAACACACUGAGAGUUUGACCAGCUAUUAAAUGGGUCGUGACUCAGUGCCUGGACGUGCAGU
modifications: 2'-F on all C and U

Biological target: rec-cMet (Recombinant Human HGF R/c-MET/Fc Chimera) (Homo sapiens, UniProt P08581;P08581 SEQ:1-283,SEQ:1-625)
Assay: SPR; rec-cMet 60 nM
Settings: tags: C-terminal HIEGRMD linker, human IgG Fc (100-330), 6xHis; R&D Systems; chain copies: 2 (inferred, Fc chimera)
Procedure: Using these truncated RNA aptamers, the binding ability thereof to the rec-cMet was examined. The binding ability was analyzed using BIACORE (registered trademark) X (GE Healthcare) in accordance with its instructions for use, with the concentration of the rec-cMet being set to 175 nmol/L. Also, the binding ability of each of the RNA aptamers g1 and g1-trA was examined in the same manner. As a comparative example, the 40N was used, and the binding ability thereof was examined in the same manner.
The binding ability of each of the RNA aptamers to the rec-cMet was examined in the same manner as in Example 5, except that the fluorinated RNA aptamers were used. The concentration of the rec-cMet was set to 60 nmol/L. With the time point at which the introduction of the rec-cMet to the chip was started being 0 seconds, introduction of a buffer was started 60 seconds later. As a comparative example, the same negative control as in Example 6 was used.

Chain of rec-cMet (Recombinant Human HGF R/c-MET/Fc Chimera) (P08581 25-307, change not shown, chain 1 of 2): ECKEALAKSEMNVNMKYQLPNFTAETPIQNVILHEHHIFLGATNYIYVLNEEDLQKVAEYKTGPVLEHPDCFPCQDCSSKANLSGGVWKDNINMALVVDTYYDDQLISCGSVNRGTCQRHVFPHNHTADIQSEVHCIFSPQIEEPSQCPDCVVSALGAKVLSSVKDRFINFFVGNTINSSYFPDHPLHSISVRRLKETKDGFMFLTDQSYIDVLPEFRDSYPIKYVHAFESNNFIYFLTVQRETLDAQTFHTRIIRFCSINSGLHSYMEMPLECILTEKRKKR
Chain of rec-cMet (Recombinant Human HGF R/c-MET/Fc Chimera) (P08581 308-932, change not shown, chain 2 of 2): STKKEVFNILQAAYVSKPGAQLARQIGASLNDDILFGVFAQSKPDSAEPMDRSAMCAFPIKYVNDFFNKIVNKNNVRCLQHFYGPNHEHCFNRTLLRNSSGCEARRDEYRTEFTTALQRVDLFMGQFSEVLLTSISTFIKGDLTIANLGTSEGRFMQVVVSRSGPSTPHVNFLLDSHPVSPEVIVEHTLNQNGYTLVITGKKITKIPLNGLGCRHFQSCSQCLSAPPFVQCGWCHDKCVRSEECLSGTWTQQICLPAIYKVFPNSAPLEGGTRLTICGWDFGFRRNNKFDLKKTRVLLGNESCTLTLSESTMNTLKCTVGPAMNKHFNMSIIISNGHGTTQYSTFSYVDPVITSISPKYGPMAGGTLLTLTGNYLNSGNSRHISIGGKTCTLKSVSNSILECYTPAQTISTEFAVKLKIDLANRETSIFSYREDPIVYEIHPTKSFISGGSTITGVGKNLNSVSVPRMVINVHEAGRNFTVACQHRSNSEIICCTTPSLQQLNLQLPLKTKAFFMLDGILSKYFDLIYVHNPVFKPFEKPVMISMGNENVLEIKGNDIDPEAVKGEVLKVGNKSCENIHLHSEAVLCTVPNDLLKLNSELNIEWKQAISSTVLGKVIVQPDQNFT

| Binder | binding result |
| --- | --- |
| B1 | binds |
| B2 | binds |
| B3 | binds |
| B4 | binds |
| B5 | binds |
| B6 | binds |
| B7 | binds |
| B8 | binds |
| B9 | binds |
| B10 | binds |
| B11 | binds |
| B12 | binds |
| B13 | binds |
| B14 | binds |
| B15 | binds |
| B16 | binds |
| B17 | binds |
| B18 | binds |
| B19 | binds |
| B20 | binds |
| B21 | binds |
| B22 | binds |
| B23 | binds |
| B24 | binds |
| B25 | binds |
| B26 | binds |
| B27 | binds |
| B28 | binds |
| B29 | binds |
| B30 | binds |
